Results from patent US20030092632A1, “Sulfated CCR5 peptides for HIV-1 infection” (priority 2001, published 2003).

What was measured:
CCR5+ cells = conditions: pre-treatment of target cells; Farzan et al. 1999; cited from earlier work
[1] = molecular target: envelope glycoproteins from HIV-1 strain JR-FL on NLluc+env- pseudotyped particles (HIV-1 JR-FL); assay: cell-based or functional assay
CCR5 = assay: flow cytometry on L1.2-CCR5+ cells, no peptide (defined as 100%), PE-streptavidin
HIV-1 = conditions: by associating with CD4 or gp120; literature; cited from earlier work

## [Na+].[O-][Cl+2]([O-])[O-] [sodium chlorate]
CCR5+ cells
  Binding of a gp120/CD4 complex to CCR5+ cells: decreased

## CCR5 Nt peptide S-3/10/14
[1]
  inhibition of viral entry, luciferase-based single round of entry assay, HeLa-CD4+CCR5+ and U87MG-CD4+CCR5+ cells, peptide 100 µM: 50%

## CCR5 Nt peptide S-10/14
[1]
  inhibition of viral entry, luciferase-based single round of entry assay, HeLa-CD4+CCR5+ and U87MG-CD4+CCR5+ cells, peptide 100 µM: 50%

## biotinylated gp120JR-FL/CD4-IgG2 complex
CCR5
  m.f.i.: 40 m.f.i.

## dextran sulfate
HIV-1
  Inhibition of HIV-1 entry: can inhibit HIV-1 entry
